Laboratory results published in patent publication US7422862B2, “Methods for identifying modulators of apoptosis” (The Burnham Institute, priority 2001, dated 2008).

What was measured:
purified recombinant Bax = purified recombinant Bax (Homo sapiens, UniProt Q07812); assay: Isolated mitochondria: Bax association and cytochrome c release assay; type: biochemical; conditions: 100 μM peptide preincubated with Bax, HCT116 mitochondria
Experimental: (§1) (A-B) Humanin peptide prevents STS-induced Bax translocation in vivo. Cos-7 cells were first transfected with GFP-Bax plasmids. After 24 hrs, untagged wild-type or C8P mutant Humanin peptides were introduced into cells using ChariotTM reagent, and 2 h later cells were treated with 1 μM STS. After 4 h, the percentage of cells with translocated Bax was determined (mean±SD; n=3) by confocal microscopy (A) and representative photomicrographs (B). (C) Wild-type or C8P mutant Humanin peptides were introduced into Cos7 cells using ChariotTM reagent. Cytosolic (C) and mitochondria-containing (M) fractions were isolated by differential centrifugation 23 and analyzed by immunoblotting using anti-Bax (top), Hsp60 (middle) (mitochondrial marker), or Tubulin (bottom) (cytosol marker) antibodies. (D) HN or mutant control double-strand siRNAs were transfected into SF268 cells. After 48 h, cells were cultured without (Control) or with 0.1 uM STS. After 24 hr, cells were fractionated and analyzed by immunoblotting as above. (E) Isolated mitochondria were mixed with 400 ng Bax protein, with or without preincubating Bax with 100 uM Humanin or Humanin(C8P) peptides for 10 min. After 3 h at 30° C., mitochondria were centrifuged and the resulting pellets (P) and supernatants (S) were analyzed by immunoblotting using anti-Cytochrome c (top), Hsp60 (middle), and Bax (bottom) antibodies. (F) HN peptide enforces the interaction of Bax TM domain with Bax.TM. Lysates from HEK293T cells expressing Flag-Bax.TM were pretreated with or without Humanin or Humanin(C8P) peptides. Lysates were then mixed in vitro with lysates of HEK293T cells expressing GFP-TM(Bax). Immunoprecipitations were performed with anti-Flag antibody, analyzing lysates and immunoprecipitates (IP) by immunoblotting using monoclonal anti-GFP antibody.
To determine whether Humanin can act directly on Bax, the effects of Humanin on isolated mitochondria were tested. Addition of recombinant purified Bax protein to mitochondria in vitro induces cytochrome c release (Jurgensmeier et al., Proc. Natl. Acad. Sci. USA 95:4997-5002 (1998)). […] Therefore Humanin can directly suppress Bax targeting to mitochondria, without requirement for intact cells.
Cytochrome c release assays were performed as follows. Mitochondria were isolated from HCT116 cells by differential centrifugation as described above. Purified recombinant human Bax protein (400 ng for each sample) was pre-incubated with or without 100 μM synthetic Humanin peptide or mutant Humanin (C8P) peptide for 10 min at 4° C. The untreated or peptide pre-treated Baxprotein samples were then mixed with equal amount of HCT116 mitochondria (in a volume of 40 μl) at 30° C. for 3 hours. […]

BaxΔTM = biological target: T1, BaxΔTM (Homo sapiens, UniProt Q07812); assay: Co-immunoprecipitation of BaxΔTM with GFP-TM(Bax); type: binding; conditions: lysates pre-incubated with peptide
T1 construct: a C-terminally truncated Bax protein (residues 1-169) (BaxΔTM); expressed in transfected cells; host or cells: HEK293T (lysates mixed in vitro)
Experimental: as §1, with “(F) HN peptide enforces the interaction of Bax TM domain with Bax.TM. Lysates from HEK293T cells expressing Flag-Bax.TM were pretreated with or without Humanin or Humanin(C8P) peptides. Lysates were then mixed in vitro with lysates of HEK293T cells expressing GFP-TM(Bax). Immunoprecipitations were performed with anti-Flag antibody, analyzing lysates and immunoprecipitates (IP) by immunoblotting using monoclonal anti-GFP antibody.” left out

endogenous Bax = biological target: T2, endogenous Bax (Mus musculus, UniProt Q07813); assay: Co-immunoprecipitation of endogenous Humanin and Bax from mouse testis lysates; type: binding; conditions: endogenous peptide and protein
T2 construct: from tissue; host or cells: testes of three-week-old mice
Text: (A) HEK293T cells were transfected with pcDNA3-myc plasmids encoding Bax or other Bcl-2 family proteins with GFP, GFP-HN, or GFP-HN(C8P). Cell lysates were immunoprecipitated with polyclonal anti-GFP antibody. The immunoprecipitates or the lysates were blotted with anti-myc or anti-GFP antibodies, respectively. The slower migrating form of GFP seen in lane 1 (asterisk)represents an alternative form of GFP produced from the wild-type (control) p-EGFP-Cl plasmid (http://clonotech.com). (B) Testes of three-week-old mice were homogenized in lysis buffer (0.1% Triton X-100, 50 mM Tris-HCl, pH7.5, 1 mM EDTA, plus protease inhibitor cocktail). The lysates were immunoprecipitated with control rabbit serum or polyclonal anti-mouse Bax antibody. The immunoprecipitates or the lysates were subjected to electrophoresis in Tris/Tricine gels (16% T, 3% C), electroblotted to PVDF membrane, and immunoblotted with polyclonal anti-HN antibody or monoclonal anti-Bax antibody 6A7 (Trevigen). […]
A rabbit polyclonal antibody raised against Humanin peptide (P04, gift of Dr. Ikuo Nishimoto) was used to examine whether endogenous Humanin peptide interacts with endogenous Bax polypeptide. […] In addition, endogenous Humanin was determined to be a cytosolic protein, based on subcellular fractionation experiments.

t-Bid = biological target: T3, t-Bid (Homo sapiens, UniProt P55957); assay: Co-immunoprecipitation of Humanin with t-Bid in 293T cells; type: binding; parameters: expressed in transfected cells
T3 sequence (P55957 61-195 limits assumed): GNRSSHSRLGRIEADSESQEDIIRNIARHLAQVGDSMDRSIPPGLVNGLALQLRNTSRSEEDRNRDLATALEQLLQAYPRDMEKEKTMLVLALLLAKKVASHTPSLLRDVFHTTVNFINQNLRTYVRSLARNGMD
Experimental: The lysates were immunoprecipitated with (A) anti-GFP antibody or (B) anti-tBid antibody and blotted with (A) anti-HA antibody or (B) anti-GFP antibody. The data shown were obtained using the cytosolic form of Humanin; however, both cytosolic and mitochondrial forms of Humanin were tested and the results were the same.
The following experiments confirm an interaction between Humanin and Bax. Similar experiments were performed to confirm an interaction between Humanin and Bid.

Sequence of purified recombinant Bax (Q07812 whole entry): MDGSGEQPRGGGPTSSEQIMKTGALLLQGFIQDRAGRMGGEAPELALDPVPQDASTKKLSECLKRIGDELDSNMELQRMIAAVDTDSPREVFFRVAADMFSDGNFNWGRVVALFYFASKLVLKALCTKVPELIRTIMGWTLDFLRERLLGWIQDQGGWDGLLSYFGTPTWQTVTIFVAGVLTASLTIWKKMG
T2 sequence (Q07813 whole entry): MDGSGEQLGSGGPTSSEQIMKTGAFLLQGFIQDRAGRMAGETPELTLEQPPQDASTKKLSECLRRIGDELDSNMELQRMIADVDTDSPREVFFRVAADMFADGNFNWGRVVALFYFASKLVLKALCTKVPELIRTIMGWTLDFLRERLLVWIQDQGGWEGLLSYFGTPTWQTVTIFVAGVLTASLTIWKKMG
T1 sequence (Q07812 1-169, stated change not applied): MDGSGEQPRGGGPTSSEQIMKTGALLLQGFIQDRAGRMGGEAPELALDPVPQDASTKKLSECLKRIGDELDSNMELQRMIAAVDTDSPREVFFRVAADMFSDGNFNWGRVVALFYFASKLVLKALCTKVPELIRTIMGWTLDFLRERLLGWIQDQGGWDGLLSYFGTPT
T1 sequence (Q07812 170-192 partner limits assumed): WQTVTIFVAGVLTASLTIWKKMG

In the case of “Humanin: 24 amino acid polypeptide, cytosolic form of human Humanin (SEQ ID NO:2); used as synthetic peptide or expressed fusion”, the “Bax association with mitochondria” value (purified recombinant Bax) is reported as “suppressed”, the cytochrome c release (purified recombinant Bax) is reported as “reduced” and the “interaction of BaxΔTM with GFP-TM” value (BaxΔTM) is reported as “immunoprecipitated”. The “co-immunoprecipitation with Bax from mouse testis lysates” value (endogenous Bax) was “co-immunoprecipitated” and the “interaction with t-Bid by co-immunoprecipitation” value (t-Bid) was “found to interact”.
